Assays:
[1] = target: VCP (valosin-containing protein) (UniProt P55072); experiment: Flag-FAF1 co-IP, immunoblot; details: reference: wild type; sites S582
[2] = target: TβRII (TGF-β type II receptor) (UniProt P37173); experiment: Flag-FAF1 co-IP, immunoblot; details: reference: wild type; sites S582

binding against the reference [1]: stronger
binding against the reference [2]: stronger
Substance: FAF1 (FAS-associated factor 1) (from UniProt Q9UNN5) S582A
